In patent US20220308072A1:

Key:
[1] = target: Recombinant, his tagged full length human frataxin protein (Abcam ab95502) (human) (UniProt Q16595); experiment: Simoa sandwich 3-step; capture Ab-5; frataxin 1000 pg/mL
[2] = target: Recombinant, his tagged full length human frataxin protein (Abcam ab95502) (human) (UniProt Q16595); experiment: Simoa sandwich 3-step; capture Ab-1; frataxin 100 pg/mL
[3] = target: Recombinant, his tagged full length human frataxin protein (Abcam ab95502) (human) (UniProt Q16595); experiment: Simoa sandwich 3-step; capture Ab-2; frataxin 100 pg/mL
[4] = target: Recombinant, his tagged full length human frataxin protein (Abcam ab95502) (human) (UniProt Q16595); experiment: Simoa sandwich 3-step; capture Ab-5
[5] = target: Recombinant, his tagged full length human frataxin protein (Abcam ab95502) (human) (UniProt Q16595); experiment: Simoa sandwich 3-step; capture Ab-4
[6] = target: Recombinant, his tagged full length human frataxin protein (Abcam ab95502) (human) (UniProt Q16595); experiment: Simoa sandwich 3-step; capture Ab-4; frataxin 1000 pg/mL
[7] = target: Recombinant, his tagged full length human frataxin protein (Abcam ab95502) (human) (UniProt Q16595); experiment: Simoa sandwich 3-step; capture Ab-3; frataxin 100 pg/mL
[8] = target: Recombinant, his tagged full length human frataxin protein (Abcam ab95502) (human) (UniProt Q16595); experiment: Simoa sandwich 3-step; capture Ab-3
[9] = target: Recombinant, his tagged full length human frataxin protein (Abcam ab95502) (human) (UniProt Q16595); experiment: Simoa sandwich 3-step; capture Ab-1; frataxin 1000 pg/mL
[10] = target: Recombinant, his tagged full length human frataxin protein (Abcam ab95502) (human) (UniProt Q16595); experiment: Simoa sandwich 3-step; capture Ab-1; frataxin 10000 pg/mL
[11] = target: Recombinant, his tagged full length human frataxin protein (Abcam ab95502) (human) (UniProt Q16595); experiment: Simoa sandwich 3-step; capture Ab-5; frataxin 10000 pg/mL
[12] = target: Recombinant, his tagged full length human frataxin protein (Abcam ab95502) (human) (UniProt Q16595); experiment: Simoa sandwich 3-step; capture Ab-5; frataxin 100 pg/mL
[13] = target: Recombinant, his tagged full length human frataxin protein (Abcam ab95502) (human) (UniProt Q16595); experiment: Simoa sandwich 3-step; capture Ab-2; frataxin 1000 pg/mL
[14] = target: Recombinant, his tagged full length human frataxin protein (Abcam ab95502) (human) (UniProt Q16595); experiment: Simoa sandwich 3-step; capture Ab-3; frataxin 1000 pg/mL
[15] = target: Recombinant, his tagged full length human frataxin protein (Abcam ab95502) (human) (UniProt Q16595); experiment: Simoa sandwich 3-step; capture Ab-2; frataxin 10000 pg/mL
[16] = target: Recombinant, his tagged full length human frataxin protein (Abcam ab95502) (human) (UniProt Q16595); experiment: Simoa sandwich 3-step; capture Ab-4; frataxin 100 pg/mL
[17] = target: Recombinant, his tagged full length human frataxin protein (Abcam ab95502) (human) (UniProt Q16595); experiment: Simoa sandwich 3-step; capture Ab-2
[18] = target: Recombinant, his tagged full length human frataxin protein (Abcam ab95502) (human) (UniProt Q16595); experiment: Simoa sandwich 3-step; capture Ab-1
[19] = target: Recombinant, his tagged full length human frataxin protein (Abcam ab95502) (human) (UniProt Q16595); experiment: Simoa sandwich 2-step; capture Ab-1
[20] = target: Recombinant, his tagged full length human frataxin protein (Abcam ab95502) (human) (UniProt Q16595); experiment: Simoa sandwich 3-step; capture Ab-1; frataxin 100 pg/mL; remark: listed apart in the source
[21] = target: Recombinant, his tagged full length human frataxin protein (Abcam ab95502) (human) (UniProt Q16595); experiment: Simoa sandwich 2-step; capture Ab-1; frataxin 100 pg/mL
[22] = target: Recombinant, his tagged full length human frataxin protein (Abcam ab95502) (human) (UniProt Q16595); experiment: Simoa sandwich 3-step; capture Ab-2; frataxin 100 pg/mL; remark: listed apart in the source
[23] = target: Recombinant, his tagged full length human frataxin protein (Abcam ab95502) (human) (UniProt Q16595); experiment: Simoa sandwich 3-step; capture Ab-2; frataxin 1000 pg/mL; remark: listed apart in the source
[24] = target: Recombinant, his tagged full length human frataxin protein (Abcam ab95502) (human) (UniProt Q16595); experiment: Simoa sandwich 2-step; capture Ab-2
[25] = target: Recombinant, his tagged full length human frataxin protein (Abcam ab95502) (human) (UniProt Q16595); experiment: Simoa sandwich 2-step; capture Ab-1; frataxin 1000 pg/mL
[26] = target: Recombinant, his tagged full length human frataxin protein (Abcam ab95502) (human) (UniProt Q16595); experiment: Simoa sandwich 2-step; capture Ab-1; frataxin 10000 pg/mL
[27] = target: Recombinant, his tagged full length human frataxin protein (Abcam ab95502) (human) (UniProt Q16595); experiment: Simoa sandwich 2-step; capture Ab-2; frataxin 100 pg/mL
[28] = target: Recombinant, his tagged full length human frataxin protein (Abcam ab95502) (human) (UniProt Q16595); experiment: Simoa sandwich 3-step; capture Ab-1; remark: listed apart in the source
[29] = target: Recombinant, his tagged full length human frataxin protein (Abcam ab95502) (human) (UniProt Q16595); experiment: Simoa sandwich 2-step; capture Ab-2; frataxin 10000 pg/mL
[30] = target: Recombinant, his tagged full length human frataxin protein (Abcam ab95502) (human) (UniProt Q16595); experiment: Simoa sandwich 3-step; capture Ab-3; frataxin 10000 pg/mL
[31] = target: Recombinant, his tagged full length human frataxin protein (Abcam ab95502) (human) (UniProt Q16595); experiment: Simoa sandwich 3-step; capture Ab-1; frataxin 10000 pg/mL; remark: listed apart in the source
[32] = target: Recombinant, his tagged full length human frataxin protein (Abcam ab95502) (human) (UniProt Q16595); experiment: Simoa sandwich 2-step; capture Ab-2; frataxin 1000 pg/mL
[33] = target: Recombinant, his tagged full length human frataxin protein (Abcam ab95502) (human) (UniProt Q16595); experiment: Simoa sandwich 3-step; capture Ab-4; frataxin 10000 pg/mL
[34] = target: Recombinant, his tagged full length human frataxin protein (Abcam ab95502) (human) (UniProt Q16595); experiment: Simoa sandwich 3-step; capture Ab-2; frataxin 10000 pg/mL; remark: listed apart in the source
[35] = target: Recombinant, his tagged full length human frataxin protein (Abcam ab95502) (human) (UniProt Q16595); experiment: Simoa sandwich 3-step; capture Ab-2; remark: listed apart in the source
[36] = target: Recombinant, his tagged full length human frataxin protein (Abcam ab95502) (human) (UniProt Q16595); experiment: Simoa sandwich 3-step; capture Ab-1; frataxin 1000 pg/mL; remark: listed apart in the source

Chain of UniProt Q16595 (Q16595 42-210): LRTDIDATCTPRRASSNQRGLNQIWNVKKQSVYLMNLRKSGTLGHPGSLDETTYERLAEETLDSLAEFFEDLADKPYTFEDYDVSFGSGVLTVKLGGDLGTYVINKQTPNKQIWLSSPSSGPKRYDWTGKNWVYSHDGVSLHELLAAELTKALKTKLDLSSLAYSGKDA

Ab-1, unconjugated mouse monoclonal to human Frataxin (LSBio LS-C760752) (antibody)
Ave AEB [1]: 8.56 AEB | S/B [1]: 95.9 | Ave AEB [2]: 0.007 AEB | Ave AEB [3]: 0.0069 AEB | S/B [3]: 4.45 | LOD [4]: 4.85 pg/mL | LOD [5]: 66 pg/mL | Ave AEB [6]: 12.4 AEB | S/B [6]: 3.63 | Ave AEB [7]: 1.92 AEB | S/B [7]: 2.05 | LOD [8]: 23.8 pg/mL | Ave AEB [9]: 0.0953 AEB | Ave AEB [10]: 1.19 AEB | Ave AEB [11]: 28.9 AEB | S/B [11]: 324 | Ave AEB [12]: 0.834 AEB | S/B [12]: 9.35 | Ave AEB [13]: 0.0712 AEB | S/B [13]: 46.2 | Ave AEB [14]: 10.3 AEB | S/B [14]: 11 | Ave AEB [15]: 1.36 AEB | S/B [15]: 885 | Ave AEB [16]: 4.72 AEB | S/B [16]: 1.37 | LOD [17]: 7.78 pg/mL

Ab-2, unconjugated mouse monoclonal to Human Frataxin FXN (LSBio LS-C755462) (antibody)
Ave AEB [1]: 9.35 AEB | S/B [1]: 95.7 | Ave AEB [2]: 0.0088 AEB | S/B [2]: 7.44 | Ave AEB [3]: 0.0068 AEB | S/B [3]: 5.41 | LOD [4]: 4.43 pg/mL | LOD [5]: 89.6 pg/mL | Ave AEB [6]: 13.6 AEB | S/B [6]: 3.71 | Ave AEB [7]: 2.42 AEB | S/B [7]: 2.36 | LOD [8]: 18 pg/mL | Ave AEB [9]: 0.107 AEB | S/B [9]: 90.8 | Ave AEB [10]: 1.05 AEB | S/B [10]: 892 | Ave AEB [11]: 29.5 AEB | S/B [11]: 302 | LOD [18]: 5.71 pg/mL | Ave AEB [12]: 0.961 AEB | S/B [12]: 9.84 | Ave AEB [13]: 0.101 AEB | S/B [13]: 80.4 | Ave AEB [14]: 11.6 AEB | S/B [14]: 11.3 | Ave AEB [15]: 0.83 AEB | S/B [15]: 659 | Ave AEB [16]: 4.73 AEB | S/B [16]: 1.29 | LOD [17]: 9.76 pg/mL

Ab-5, rabbit polyclonal to recombinant full-length Human Frataxin (Abcam ab175402) (antibody)
Ave AEB [1]: 5.53 AEB | S/B [1]: 56.2 | Ave AEB [2]: 0.106 AEB | S/B [2]: 10.8 | Ave AEB [3]: 0.115 AEB | S/B [3]: 7.3 | LOD [19]: 1.27 pg/mL | LOD [4]: 7.44 pg/mL | LOD [5]: 52.8 pg/mL | Ave AEB [6]: 3.95 AEB | S/B [6]: 7.32 | Ave AEB [7]: 0.469 AEB | S/B [7]: 1.8 | LOD [8]: 33.6 pg/mL | Ave AEB [20]: 0.152 AEB | S/B [20]: 6.28 | Ave AEB [9]: 0.998 AEB | S/B [9]: 101 | Ave AEB [21]: 1.61 AEB | S/B [21]: 27.6 | Ave AEB [22]: 0.16 AEB | S/B [22]: 7.69 | Ave AEB [10]: 5.93 AEB | S/B [10]: 602 | Ave AEB [23]: 1.59 AEB | S/B [23]: 76.4 | Ave AEB [11]: 21.7 AEB | S/B [11]: 220 | LOD [24]: 1.88 pg/mL | LOD [18]: 2.95 pg/mL | Ave AEB [12]: 0.573 AEB | S/B [12]: 5.82 | Ave AEB [25]: 12.4 AEB | S/B [25]: 212 | Ave AEB [26]: 29.3 AEB | S/B [26]: 502 | Ave AEB [13]: 1.03 AEB | S/B [13]: 65 | Ave AEB [27]: 1.49 AEB | S/B [27]: 26.1 | Ave AEB [14]: 2.64 AEB | S/B [14]: 10.1 | LOD [28]: 5.12 pg/mL | Ave AEB [29]: 28.4 AEB | S/B [29]: 497 | Ave AEB [30]: 20.5 AEB | S/B [30]: 78.8 | Ave AEB [31]: 8.37 AEB | S/B [31]: 346 | Ave AEB [15]: 5.41 AEB | S/B [15]: 343 | Ave AEB [32]: 13.1 AEB | S/B [32]: 228 | Ave AEB [33]: 23.7 AEB | S/B [33]: 44.1 | Ave AEB [16]: 0.814 AEB | S/B [16]: 1.51 | LOD [17]: 4.62 pg/mL | Ave AEB [34]: 9.03 AEB | S/B [34]: 434 | LOD [35]: 4.9 pg/mL | Ave AEB [36]: 1.31 AEB | S/B [36]: 53.9
